Fold reduction in dissociation half-life against wild type and Kd data for 2 substances are collected here from publication PMC7482062.

Assay [1] deals with P113 N-terminal fragment D106K E107K mutant, biotinylated bait (Plasmodium falciparum (3D7 strain)) (UniProt Q8ILP3). Description: SPR; […]; Biacore 8K, 37°C, HBS-EP.
For assay [2], the target named is P113 (Plasmodium falciparum) (UniProt Q8ILP3). The following applies: cited from earlier work.

Take “RH5, purified monomeric protein (from UniProt Q8IFM5 25-526) (ligand)”: the fold reduction in dissociation half-life against wild type in assay [1] is 2 fold.
For the substance RH5 (from UniProt Q8IFM5), the Kd in assay [2] is 300 nM.
